Test results taken from PMC1868598.

B1: human ClC-6 (hClC-6a): AAAA-hClC-6 (protein)
parent chain: MAGCRGSLCCCCRWCCCCGERETRTPEELTILGETQEEEDEILPRKDYESLDYDRCINDPYLEVLETMDNKKGRRYEAVKWMVVFAIGVCTGLVGLFVDFFVRLFTQLKFGVVQTSVEECSQKGCLALSLLELLGFNLTFVFLASLLVLIEPVAAGSGIPEVKCYLNGVKVPGIVRLRTLLCKVLGVLFSVAGGLFVEKEGPMIHSGSVVGAGLPQFQSISLRKIQFNFPYFRSDRDKRDFVSAGAAAGVAAAFGAPIGGTLFSLEEGSSFWNQGLTWKVLFCSMSATFTLNFFRSGIQFGSWGSFQLPGLLNFGEFKCSDSDKKCHLWTAMDLGFFVVMGVIGGLLGATFNCLNKRLAKYRMRNVHPKPKLVRVLESLLVSLVTTVVVFVASMVLGECRQMSSSSQIGNDSFQLQVTEDVNSSIKTFFCPNDTYNDMATLFFNPQESAILQLFHQDGTFSPVTLALFFVLYFLLACWTYGISVPSGLFVPSLLCGAAFGRLVANVLKSYIGLGHIYSGTFALIGAAAFLGGVVRMTISLTVILIESTNEITYGLPIMVTLMVAKWTGDFFNKGIYDIHVGLRGVPLLEWETEVEMDKLRASDIMEPNLTYVYPHTRIQSLVSILRTTVHHAFPVVTENRGNEKEFMKGNQLISNNIKFKKSSILTRAGEQRKRSQSMKSYPSSELRNMCDEHIASEEPAEKEDLLQQMLERRYTPYPNLYPDQSPSEDWTMEERFRPLTFHGLILRSQLVTLLVRGVCYSESQSSASQPRLSYAEMAEDYPRYPDIHDLDLTLLNPRMIVDVTPYMNPSPFTVSPNTHVSQVFNLFRTMGLRHLPVVNAVGEIVGIITRHNLTYEFLQARLRQHYQTI
B2: human ClC-6 (hClC-6a): NNA-hClC-6: N432A (protein)
parent chain: MAGCRGSLCCCCRWCCCCGERETRTPEELTILGETQEEEDEILPRKDYESLDYDRCINDPYLEVLETMDNKKGRRYEAVKWMVVFAIGVCTGLVGLFVDFFVRLFTQLKFGVVQTSVEECSQKGCLALSLLELLGFNLTFVFLASLLVLIEPVAAGSGIPEVKCYLNGVKVPGIVRLRTLLCKVLGVLFSVAGGLFVEKEGPMIHSGSVVGAGLPQFQSISLRKIQFNFPYFRSDRDKRDFVSAGAAAGVAAAFGAPIGGTLFSLEEGSSFWNQGLTWKVLFCSMSATFTLNFFRSGIQFGSWGSFQLPGLLNFGEFKCSDSDKKCHLWTAMDLGFFVVMGVIGGLLGATFNCLNKRLAKYRMRNVHPKPKLVRVLESLLVSLVTTVVVFVASMVLGECRQMSSSSQIGNDSFQLQVTEDVNSSIKTFFCPNDTYNDMATLFFNPQESAILQLFHQDGTFSPVTLALFFVLYFLLACWTYGISVPSGLFVPSLLCGAAFGRLVANVLKSYIGLGHIYSGTFALIGAAAFLGGVVRMTISLTVILIESTNEITYGLPIMVTLMVAKWTGDFFNKGIYDIHVGLRGVPLLEWETEVEMDKLRASDIMEPNLTYVYPHTRIQSLVSILRTTVHHAFPVVTENRGNEKEFMKGNQLISNNIKFKKSSILTRAGEQRKRSQSMKSYPSSELRNMCDEHIASEEPAEKEDLLQQMLERRYTPYPNLYPDQSPSEDWTMEERFRPLTFHGLILRSQLVTLLVRGVCYSESQSSASQPRLSYAEMAEDYPRYPDIHDLDLTLLNPRMIVDVTPYMNPSPFTVSPNTHVSQVFNLFRTMGLRHLPVVNAVGEIVGIITRHNLTYEFLQARLRQHYQTI
B3: human ClC-6 (hClC-6a): NAA-hClC-6: N422A/N432A (protein)
parent chain: MAGCRGSLCCCCRWCCCCGERETRTPEELTILGETQEEEDEILPRKDYESLDYDRCINDPYLEVLETMDNKKGRRYEAVKWMVVFAIGVCTGLVGLFVDFFVRLFTQLKFGVVQTSVEECSQKGCLALSLLELLGFNLTFVFLASLLVLIEPVAAGSGIPEVKCYLNGVKVPGIVRLRTLLCKVLGVLFSVAGGLFVEKEGPMIHSGSVVGAGLPQFQSISLRKIQFNFPYFRSDRDKRDFVSAGAAAGVAAAFGAPIGGTLFSLEEGSSFWNQGLTWKVLFCSMSATFTLNFFRSGIQFGSWGSFQLPGLLNFGEFKCSDSDKKCHLWTAMDLGFFVVMGVIGGLLGATFNCLNKRLAKYRMRNVHPKPKLVRVLESLLVSLVTTVVVFVASMVLGECRQMSSSSQIGNDSFQLQVTEDVNSSIKTFFCPNDTYNDMATLFFNPQESAILQLFHQDGTFSPVTLALFFVLYFLLACWTYGISVPSGLFVPSLLCGAAFGRLVANVLKSYIGLGHIYSGTFALIGAAAFLGGVVRMTISLTVILIESTNEITYGLPIMVTLMVAKWTGDFFNKGIYDIHVGLRGVPLLEWETEVEMDKLRASDIMEPNLTYVYPHTRIQSLVSILRTTVHHAFPVVTENRGNEKEFMKGNQLISNNIKFKKSSILTRAGEQRKRSQSMKSYPSSELRNMCDEHIASEEPAEKEDLLQQMLERRYTPYPNLYPDQSPSEDWTMEERFRPLTFHGLILRSQLVTLLVRGVCYSESQSSASQPRLSYAEMAEDYPRYPDIHDLDLTLLNPRMIVDVTPYMNPSPFTVSPNTHVSQVFNLFRTMGLRHLPVVNAVGEIVGIITRHNLTYEFLQARLRQHYQTI
B4: human ClC-6 (hClC-6a): ANA-hClC-6: N410A/N432A (protein)
parent chain: MAGCRGSLCCCCRWCCCCGERETRTPEELTILGETQEEEDEILPRKDYESLDYDRCINDPYLEVLETMDNKKGRRYEAVKWMVVFAIGVCTGLVGLFVDFFVRLFTQLKFGVVQTSVEECSQKGCLALSLLELLGFNLTFVFLASLLVLIEPVAAGSGIPEVKCYLNGVKVPGIVRLRTLLCKVLGVLFSVAGGLFVEKEGPMIHSGSVVGAGLPQFQSISLRKIQFNFPYFRSDRDKRDFVSAGAAAGVAAAFGAPIGGTLFSLEEGSSFWNQGLTWKVLFCSMSATFTLNFFRSGIQFGSWGSFQLPGLLNFGEFKCSDSDKKCHLWTAMDLGFFVVMGVIGGLLGATFNCLNKRLAKYRMRNVHPKPKLVRVLESLLVSLVTTVVVFVASMVLGECRQMSSSSQIGNDSFQLQVTEDVNSSIKTFFCPNDTYNDMATLFFNPQESAILQLFHQDGTFSPVTLALFFVLYFLLACWTYGISVPSGLFVPSLLCGAAFGRLVANVLKSYIGLGHIYSGTFALIGAAAFLGGVVRMTISLTVILIESTNEITYGLPIMVTLMVAKWTGDFFNKGIYDIHVGLRGVPLLEWETEVEMDKLRASDIMEPNLTYVYPHTRIQSLVSILRTTVHHAFPVVTENRGNEKEFMKGNQLISNNIKFKKSSILTRAGEQRKRSQSMKSYPSSELRNMCDEHIASEEPAEKEDLLQQMLERRYTPYPNLYPDQSPSEDWTMEERFRPLTFHGLILRSQLVTLLVRGVCYSESQSSASQPRLSYAEMAEDYPRYPDIHDLDLTLLNPRMIVDVTPYMNPSPFTVSPNTHVSQVFNLFRTMGLRHLPVVNAVGEIVGIITRHNLTYEFLQARLRQHYQTI
B5: human ClC-6 (hClC-6a): NAN-hClC-6: N422A (protein)
parent chain: MAGCRGSLCCCCRWCCCCGERETRTPEELTILGETQEEEDEILPRKDYESLDYDRCINDPYLEVLETMDNKKGRRYEAVKWMVVFAIGVCTGLVGLFVDFFVRLFTQLKFGVVQTSVEECSQKGCLALSLLELLGFNLTFVFLASLLVLIEPVAAGSGIPEVKCYLNGVKVPGIVRLRTLLCKVLGVLFSVAGGLFVEKEGPMIHSGSVVGAGLPQFQSISLRKIQFNFPYFRSDRDKRDFVSAGAAAGVAAAFGAPIGGTLFSLEEGSSFWNQGLTWKVLFCSMSATFTLNFFRSGIQFGSWGSFQLPGLLNFGEFKCSDSDKKCHLWTAMDLGFFVVMGVIGGLLGATFNCLNKRLAKYRMRNVHPKPKLVRVLESLLVSLVTTVVVFVASMVLGECRQMSSSSQIGNDSFQLQVTEDVNSSIKTFFCPNDTYNDMATLFFNPQESAILQLFHQDGTFSPVTLALFFVLYFLLACWTYGISVPSGLFVPSLLCGAAFGRLVANVLKSYIGLGHIYSGTFALIGAAAFLGGVVRMTISLTVILIESTNEITYGLPIMVTLMVAKWTGDFFNKGIYDIHVGLRGVPLLEWETEVEMDKLRASDIMEPNLTYVYPHTRIQSLVSILRTTVHHAFPVVTENRGNEKEFMKGNQLISNNIKFKKSSILTRAGEQRKRSQSMKSYPSSELRNMCDEHIASEEPAEKEDLLQQMLERRYTPYPNLYPDQSPSEDWTMEERFRPLTFHGLILRSQLVTLLVRGVCYSESQSSASQPRLSYAEMAEDYPRYPDIHDLDLTLLNPRMIVDVTPYMNPSPFTVSPNTHVSQVFNLFRTMGLRHLPVVNAVGEIVGIITRHNLTYEFLQARLRQHYQTI
B6: human ClC-6 (hClC-6a): ANN-hClC-6: N410A (protein)
parent chain: MAGCRGSLCCCCRWCCCCGERETRTPEELTILGETQEEEDEILPRKDYESLDYDRCINDPYLEVLETMDNKKGRRYEAVKWMVVFAIGVCTGLVGLFVDFFVRLFTQLKFGVVQTSVEECSQKGCLALSLLELLGFNLTFVFLASLLVLIEPVAAGSGIPEVKCYLNGVKVPGIVRLRTLLCKVLGVLFSVAGGLFVEKEGPMIHSGSVVGAGLPQFQSISLRKIQFNFPYFRSDRDKRDFVSAGAAAGVAAAFGAPIGGTLFSLEEGSSFWNQGLTWKVLFCSMSATFTLNFFRSGIQFGSWGSFQLPGLLNFGEFKCSDSDKKCHLWTAMDLGFFVVMGVIGGLLGATFNCLNKRLAKYRMRNVHPKPKLVRVLESLLVSLVTTVVVFVASMVLGECRQMSSSSQIGNDSFQLQVTEDVNSSIKTFFCPNDTYNDMATLFFNPQESAILQLFHQDGTFSPVTLALFFVLYFLLACWTYGISVPSGLFVPSLLCGAAFGRLVANVLKSYIGLGHIYSGTFALIGAAAFLGGVVRMTISLTVILIESTNEITYGLPIMVTLMVAKWTGDFFNKGIYDIHVGLRGVPLLEWETEVEMDKLRASDIMEPNLTYVYPHTRIQSLVSILRTTVHHAFPVVTENRGNEKEFMKGNQLISNNIKFKKSSILTRAGEQRKRSQSMKSYPSSELRNMCDEHIASEEPAEKEDLLQQMLERRYTPYPNLYPDQSPSEDWTMEERFRPLTFHGLILRSQLVTLLVRGVCYSESQSSASQPRLSYAEMAEDYPRYPDIHDLDLTLLNPRMIVDVTPYMNPSPFTVSPNTHVSQVFNLFRTMGLRHLPVVNAVGEIVGIITRHNLTYEFLQARLRQHYQTI
B7: human ClC-6 (hClC-6a): AAN-hClC-6: N410A/N422A (protein)
parent chain: MAGCRGSLCCCCRWCCCCGERETRTPEELTILGETQEEEDEILPRKDYESLDYDRCINDPYLEVLETMDNKKGRRYEAVKWMVVFAIGVCTGLVGLFVDFFVRLFTQLKFGVVQTSVEECSQKGCLALSLLELLGFNLTFVFLASLLVLIEPVAAGSGIPEVKCYLNGVKVPGIVRLRTLLCKVLGVLFSVAGGLFVEKEGPMIHSGSVVGAGLPQFQSISLRKIQFNFPYFRSDRDKRDFVSAGAAAGVAAAFGAPIGGTLFSLEEGSSFWNQGLTWKVLFCSMSATFTLNFFRSGIQFGSWGSFQLPGLLNFGEFKCSDSDKKCHLWTAMDLGFFVVMGVIGGLLGATFNCLNKRLAKYRMRNVHPKPKLVRVLESLLVSLVTTVVVFVASMVLGECRQMSSSSQIGNDSFQLQVTEDVNSSIKTFFCPNDTYNDMATLFFNPQESAILQLFHQDGTFSPVTLALFFVLYFLLACWTYGISVPSGLFVPSLLCGAAFGRLVANVLKSYIGLGHIYSGTFALIGAAAFLGGVVRMTISLTVILIESTNEITYGLPIMVTLMVAKWTGDFFNKGIYDIHVGLRGVPLLEWETEVEMDKLRASDIMEPNLTYVYPHTRIQSLVSILRTTVHHAFPVVTENRGNEKEFMKGNQLISNNIKFKKSSILTRAGEQRKRSQSMKSYPSSELRNMCDEHIASEEPAEKEDLLQQMLERRYTPYPNLYPDQSPSEDWTMEERFRPLTFHGLILRSQLVTLLVRGVCYSESQSSASQPRLSYAEMAEDYPRYPDIHDLDLTLLNPRMIVDVTPYMNPSPFTVSPNTHVSQVFNLFRTMGLRHLPVVNAVGEIVGIITRHNLTYEFLQARLRQHYQTI

Assay: confocal colocalisation with GFP-Rab4, transfected HeLa/COS-1
Conditions: glycan lost; control: wild type

| Protein | localisation_or_trafficking |
| --- | --- |
| B1 | no change |
| B2 | no change |
| B3 | no change |
| B4 | no change |
| B5 | no change |
| B6 | no change |
| B7 | no change |
